In the supplement of paper PMC10724198:
± gives the standard deviation of the averaged measurements.

What follows are sequences tested on Saccharomyces cerevisiae (assay: protein stability index of tFT-peptide fusion (C-terminal peptide) (PSI (0-1 scale)); higher = more stable (slower turnover)). Conditions: genetic background: wild type; temperature: 30 C.
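Note: PSI is a weighted mean of sequencing reads over stability bins, variants kept only with over 10 reads, mCherry proximal and sfGFP distal, peptide attached via GGGS linker.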

Sequence | protein stability index
SSSVPFRRYTHD | 0.711 ± 0.017
WFDVVALPCLSF | 0.562 ± 0.0084
SLPAPRLGCIPC | 0.64 ± 0.044
SAPALPCQSPRL | 0.696 ± 0.011
RDPWESLDRCYP | 0.698 ± 0.034
FQWAPGIDTVYC | 0.705 ± 0.058
PPTPVSRSPPPA | 0.665 ± 0.021
PPHPPPPLLPAP | 0.715 ± 0.051
PLCSPALHGPPP | 0.736 ± 0.033
LPSEAPSLLAPP | 0.663 ± 0.084
GGYGEGAVLFVG | 0.58 ± 0.012
WPTPRVGIDLEN | 0.631 ± 0.05
PSSDVLLFALSF | 0.6486 ± 0.0049
QEGGWKRTYDII | 0.678 ± 0.046
NLSYPSCDPPAT | 0.5836 ± 0.0032
PPNPPPPPLPPP | 0.666 ± 0.068
PPPLLTSSPPPR | 0.712 ± 0.025
APVSLHVPPCSR | 0.669 ± 0.026
KREMESTTHSKT | 0.5985 ± 0.0011
LPYHSSPPSSSP | 0.702 ± 0.046
APTRVDTAGSCV | 0.676 ± 0.051

Sequence | protein stability index
EKEFLWKAISAV | 0.504 ± 0.016
PSHFSPPSAPPP | 0.738 ± 0.055
WGGGGGGGAAGS | 0.679 ± 0.08
PHTEPVIVACSG | 0.601 ± 0.033
TSHMKASANDTL | 0.687 ± 0.11
GAVARFRPCWPL | 0.633 ± 0.011
EVDSTLAPHGHP | 0.866 ± 0.041
NKPRSYRVDKRQ | 0.615 ± 0.015
GDYKESAFRMDG | 0.761 ± 0.043
QPSSYPEANRQG | 0.671 ± 0.028
RPPPRPASPGSP | 0.634 ± 0.039
IQAERKKSYKDT | 0.616 ± 0.075
RNTRVSLPPRGQ | 0.63 ± 0.041
GDKKYRYGNKVF | 0.737 ± 0.086
PAPPPPPPPLYP | 0.718 ± 0.013
DILRSGVYDVCK | 0.7251 ± 0.00083
PMLGMSTLGDRF | 0.657 ± 0.038
PFIYSLPAPLPF | 0.72 ± 0.035
RNLFRRAPNQGL | 0.723 ± 0.043
PSPHAITSHFRP | 0.723 ± 0.04
VLLFALSPHPPS | 0.724 ± 0.024

Sequence | protein stability index
GGGAGGGGRRGR | 0.747 ± 0.01
GFVPGGGGRSSV | 0.681 ± 0.0092
LGMEPPWIYSCQ | 0.6851 ± 0.0019
PPGPSVPPHRPP | 0.754 ± 0.049
SSDSVPIVVGVV | 0.66 ± 0.056
PCPPLPGILSSL | 0.674 ± 0.035
LMCSSGGGCSCG | 0.706 ± 0.023
RVGLRGGCGSNG | 0.725 ± 0.029
RLRAFSRSVSSP | 0.734 ± 0.11
AVVYRGGRGGIS | 0.775 ± 0.047
PPPAPSSPVLVP | 0.686 ± 0.037
PPPSPLANPPSP | 0.728 ± 0.092
GVGGGGIGVGMG | 0.7262 ± 0.0018
CSCSQYFHLPNV | 0.687 ± 0.017
PYVLGRDVVVLF | 0.7 ± 0.06
PPRPPAPHLSGI | 0.681 ± 0.039
PTPGSSPLPATL | 0.687 ± 0.0075
PPTRPPPALIPP | 0.711 ± 0.022
AGMATWGILVSL | 0.52 ± 0.008
AIALASTNLMAG | 0.713 ± 0.097
GGLGVGPGWWGP | 0.733 ± 0.043

Sequence | protein stability index
PTVPLSSVVRDA | 0.746 ± 0.051
CFSRCLSLLSSS | 0.636 ± 0.021
GGSSLSSSSVIR | 0.675 ± 0.036
LAPRPPAPTPTL | 0.603 ± 0.053
SKLTSRPLSKVP | 0.718 ± 0.048
LPLPPPPLLPAP | 0.732 ± 0.057
RRRAINIPNNRL | 0.712 ± 0.016
GAGKGWARWLVW | 0.632 ± 0.041
SRSRCGSRAVAF | 0.694 ± 0.029
IPGVPPPRFSIR | 0.704 ± 0.034
GRGTGGKGRRGS | 0.693 ± 0.015
RPLSPPRPPPPS | 0.678 ± 0.014
AFRSISERLGGS | 0.784 ± 0.018
SPSPSPPPAISI | 0.657 ± 0.015
TFHCGPFRLFSC | 0.6545 ± 0.0055
RLNKPRAPEKKA | 0.717 ± 0.11
LLPSPPPPTSLP | 0.728 ± 0.033
GFGFLQIVSGWL | 0.608 ± 0.067
